From patent US20130017541

How the values were obtained:
[1] = system: DpnI biotinylated (bDpnI); test: pulldown
[2] = system: anti-N6-methyladenine mouse polyclonal antisera (Mus musculus); test: ELONA; conditions: N6-methyladenine at position 6 (printed as marked A) [6 (N6-methyladenine)]; oligo ELISA, antisera 1:10,000
[3] = system: anti-N6-methyladenine monoclonal antibody (best hybridoma) (Mus musculus); test: ELONA; conditions: N6-methyladenine at position 6 (printed as marked A) [6 (N6-methyladenine)]; nearly 40 fold discrimination

E. coli genomic DNA
binding signal ([1]; N6-methyladenine at GATC (dam), 10 ng E. coli DNA in 1 ug human DNA, at least 30% at pg input): > 80 % recovered

GCAGGATCAACAGTCACACT [N6mA oligo]
binding signal (fold preference over unmethylated oligo) [2]: > 10 | binding signal (fold preference over unmethylated oligo) [3]: 40

human genomic DNA
binding signal ([1]; 1 ug human DNA, one wash, reduced to 1% with three washes): 10 % recovered
